PMC3931408 (Journal of Agricultural and Food Chemistry, 2014)

Columns and labels:
[1] = molecular target: L-arabinose isomerase from Lactobacillus reuteri DSMZ 17509 (Lactobacillus reuteri); test: SEC; 190 mL Sephacryl S300 column, 50 mM potassium phosphate buffer pH 7.0, 150 mM NaCl; molecular weight marker kit for gel filtration; oligomer size from the apparent mass against the calculated subunit mass
[2] = molecular target: the molecule itself; test: as above

Molecule	stoichiometry N [1]	stoichiometry N [2]
L-arabinose isomerase from Lactobacillus reuteri DSMZ 17509 (enzyme)	6	–
D-xylose isomerase from Lactobacillus reuteri DSMZ 17509 (enzyme, UniProt Q5QG16 1-449, looked up) MADLWNNIDKIEYEGPHKSIKSGLFYQYYNPDEVILGKKMKDWLRFSVAYWHTFDQRLVDPFGDGTAQRPYDKYSDPMDCALAKVDYAFEFYNKLGVDFLCFHDRDLAPEGDTLRETNKNLDRVVDKIVEYQKATGMKVLWNTSNLFTNPRFLEGAGTAPSAEIYAYAAAQLKHSLEVGKRVGSENYVFWGGREGYESLWNTDMKREQSHIAKFFHMAKDYANEIGFDAQMLLEPKPKEPTTHQYDFDAATTINFMCEYGLDKDFKLNLEGNHANLAGHTYQHEIRVAREAGLLGSLDANQGDKLIGWDIDEYPSNLYETTAAMWEVIQNGSIGPRGGLNFDAKPRRTSFKPVDLFYGHIVGMDSFAAGLRVAAAMKEDGFLDDIIKERYSTWDEGLGKSIEDGNENFASLEEKVIDTPQSELLAATHSDHLEEIKDTINHYMIETLAK	–	4
